Assay [1] addresses N-terminally thioredoxin (Trx)-tagged Ct domain of CaeA2 (Actinoalloteichus cyanogriseus) (UniProt M1F4W8). As to the kind of experiment: ITC. Background: Isothermal titration calorimetry measures the heat released or taken up as one component is titrated into another.
Assay [2] concerns the target T1, N-terminally thioredoxin (Trx)-tagged Ct domain of CaeA2 (Actinoalloteichus cyanogriseus, UniProt M1F4W8 2080-2484).
T1 sequence (looked up): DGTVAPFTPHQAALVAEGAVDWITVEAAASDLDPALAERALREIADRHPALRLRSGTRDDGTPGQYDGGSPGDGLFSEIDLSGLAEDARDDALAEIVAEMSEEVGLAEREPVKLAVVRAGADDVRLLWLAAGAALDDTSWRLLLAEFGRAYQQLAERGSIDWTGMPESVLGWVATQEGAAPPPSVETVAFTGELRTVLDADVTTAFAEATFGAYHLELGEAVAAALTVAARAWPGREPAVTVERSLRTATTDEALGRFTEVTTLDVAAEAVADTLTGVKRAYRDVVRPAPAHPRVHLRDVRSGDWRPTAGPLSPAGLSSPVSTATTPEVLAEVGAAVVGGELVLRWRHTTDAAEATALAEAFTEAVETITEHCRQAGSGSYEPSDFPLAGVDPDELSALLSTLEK
As to the kind of experiment: ITC.

As a reminder, the Kd is the equilibrium constant for the complex coming apart. A higher Kd goes with lower affinity. In the case of ColB1 (enzyme), in assay [1], the Kd came out at 1180 nM.

B1: MBP-fused CaeB1 variant (enzyme)
chain: MTTGNGAAPPPLTRLSPEDEAWRAHVRAFAEEHIAPLSDRMDRDATLDPGLREKLFSAGLMAVEAPARYGGRGGSLFQVVLTIEEVARVDPGVAVGVDVHNALVVATLLRQGTGDQKRRRLPLLATRQVGAFALSEENAGSDAFAGTTTAVPTSDGGYRINGRKRWTSNAGQADVFLVFARTEGHGSSAFLVDRTAEGLSIDPRTEQMGVRAAATADVVLTDVRVRRQDCVGGPGGGEGVAIGALDIGRIGIAAQMVGLAQGALDEAVAYSRTREQFGQPIGSYQGVRFTLADIATEVAAARALLYDVTRTVAAGTDIAERLRLTAMAKYFASQVAERAASRALEVLGGNGFTREYPLERFYRDVKAGKIYEGTSNMLLRSIAGSL
Consider B1, for which, in assay [2], binding was put at a Kd of 530 ± 120 nM.

(Values after paper doi:10.1101/2020.12.07.415471 (bioRxiv, 2020).)
